This test has as its target T1, human CD40 expressed on CHO cells (human, UniProt P25942 21-277).
T1 construct: whole, on cells; also used for the reporter cells over-expressing human CD40; also called cellular CD40; CHO-CD40 cells
The test is described as follows: FACS, CHO cells. On the technique in general: In flow cytometry, cells or beads pass a laser one at a time.

T1 sequence (P25942 21-277): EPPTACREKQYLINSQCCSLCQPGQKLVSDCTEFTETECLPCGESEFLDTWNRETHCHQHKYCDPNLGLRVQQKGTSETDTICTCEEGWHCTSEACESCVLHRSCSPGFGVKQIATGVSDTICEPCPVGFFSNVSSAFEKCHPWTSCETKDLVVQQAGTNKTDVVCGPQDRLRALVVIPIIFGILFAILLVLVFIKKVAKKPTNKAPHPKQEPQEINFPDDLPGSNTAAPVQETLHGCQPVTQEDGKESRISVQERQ

B1: TM378 (antibody, human IgG4 S228P, kappa, V domains shown)
VH: EVHLVESGGGLVQPGRSLKLSCAASGFTFTNYGLHWIRQAPTKGLEWVASISPSGGVTYYRDSVKGRFTISRDNGKTTLHLQMDSLRSEDTATYYCALPFLGWGGANWIAHWGQGTLVTVSS
VL: DIQMTQSPASLSASLGETVSIECLASEDISNDLAWYQQKSGKSPQLLIYFVDRLLDGVPSRFSGSGSGTRHSLKISGMQPEDEADYFCQQSYKYPPTFGGGTKLELKR
notes: chimeric LYV378, human IgG4; also called chimeric counterpart TM378
For B1, the binding result is reported as “binds”.

B2: TM559 (antibody, human IgG2, kappa)
heavy: EVQLVESGGGLVQPGGSLRLSCAASGFTFTNYGLHWVRQAPGKGLEWVSSISPSGGVTYYRDSVKGRFTISRDNSKNTLYLQMNSLRAEDTAVYYCAKPFLGWGGANWIAHWGQGTLVTVSSASTKGPSVFPLAPCSRSTSESTAALGCLVKDYFPEPVTVSWNSGALTSGVHTFPAVLQSSGLYSLSSVVTVPSSNFGTQTYTCNVDHKPSNTKVDKTVERKCCVECPPCPAPPVAGPSVFLFPPKPKDTLMISRTPEVTCVVVDVSHEDPEVQFNWYVDGVEVHNAKTKPREEQFNSTFRVVSVLTVVHQDWLNGKEYKCKVSNKGLPAPIEKTISKTKGQPREPQVYTLPPSREEMTKNQVSLTCLVKGFYPSDIAVEWESNGQPENNYKTTPPMLDSDGSFFLYSKLTVDKSRWQQGNVFSCSVMHEALHNHYTQKSLSLSPG
light: DIQMTQSPSSLSASVGDRVTITCLASEDISNDLAWYQQKPGKAPKLLIYFVDRLLDGVPSRFSGSGSGTDFTLTISSLQPEDFATYYCQQSYKYPPTFGQGTKLEIKRTVAAPSVFIFPPSDEQLKSGTASVVCLLNNFYPREAKVQWKVDNALQSGNSQESVTEQDSKDSTYSLSSTLTLSKADYEKHKVYACEVTHQGLSSPVTKSFNRGEC
notes: LYV378_VH-1/IgG2, LYV378_VL-1/kappa
For the molecule B2, the binding result is “binds”.

B3: LP3782 (antibody, human IgG4 S228P, kappa)
heavy: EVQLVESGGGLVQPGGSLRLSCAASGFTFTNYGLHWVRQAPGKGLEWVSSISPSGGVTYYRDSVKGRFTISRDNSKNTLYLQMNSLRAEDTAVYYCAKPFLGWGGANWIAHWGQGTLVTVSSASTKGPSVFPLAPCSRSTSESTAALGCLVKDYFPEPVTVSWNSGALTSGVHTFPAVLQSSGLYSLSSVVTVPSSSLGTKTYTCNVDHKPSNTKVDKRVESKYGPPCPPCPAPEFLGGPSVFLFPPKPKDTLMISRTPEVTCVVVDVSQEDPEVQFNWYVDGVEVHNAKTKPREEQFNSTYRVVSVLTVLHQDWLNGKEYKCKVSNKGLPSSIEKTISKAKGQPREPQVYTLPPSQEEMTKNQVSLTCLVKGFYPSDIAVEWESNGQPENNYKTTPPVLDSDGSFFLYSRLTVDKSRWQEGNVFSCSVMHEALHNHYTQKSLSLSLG
light: DIQMTQSPSSLSASVGDRVTITCLASEDISNDLAWYQQKPGKAPKLLIYFVDRLLDGVPSRFSGSGSGTDFTLTISSLQPEDFATYYCQQSYKYPPTFGQGTKLEIKRTVAAPSVFIFPPSDEQLKSGTASVVCLLNNFYPREAKVQWKVDNALQSGNSQESVTEQDSKDSTYSLSSTLTLSKADYEKHKVYACEVTHQGLSSPVTKSFNRGEC
notes: LYV378_VH-1/IgG4, LYV378_VL-1/kappa; also called TM3782
For the molecule B3, the binding result is on record as “binds”.

B4: LP3781 (antibody, human IgG1, kappa)
heavy: not shown
light: DIQMTQSPSSLSASVGDRVTITCLASEDISNDLAWYQQKPGKAPKLLIYFVDRLLDGVPSRFSGSGSGTDFTLTISSLQPEDFATYYCQQSYKYPPTFGQGTKLEIKRTVAAPSVFIFPPSDEQLKSGTASVVCLLNNFYPREAKVQWKVDNALQSGNSQESVTEQDSKDSTYSLSSTLTLSKADYEKHKVYACEVTHQGLSSPVTKSFNRGEC
notes: LYV378_VH-1/IgG1, LYV378_VL-1/kappa; also called TM3781
With B4, the binding result is reported as “binds”.

B5: LP3783 (antibody, human IgG1, kappa)
heavy: EVQLVESGGGLVQPGGSLRLSCAASGFTFTNYGLHWVRQAPGKGLEWVSSISPSGGVTYYRDSVKGRFTISRDNSKNTLYLQMNSLRAEDTAVYYCAKPFLGWGGANWIAHWGQGTLVTVSSASTKGPSVFPLAPSSKSTSGGTAALGCLVKDYFPEPVTVSWNSGALTSGVHTFPAVLQSSGLYSLSSVVTVPSSSLGTQTYICNVNHKPSNTKVDKKVEPKSCDKTHTCPPCPAPELLGPSVFLFPPKPKDTLMISRTPEVTCVVVDVEHEDPEVKFNWYVDGVEVHNAKTKPREEQYNSTYRVVSVLTVLHQDWLNGKEYKCKVSNKALPAPIEKTISKAKGQPREPQVYTLPPSREEMTKNQVSLTCLVKGFYPSDIAVEWESNGQPENNYKTTPPVLDSDGSFFLYSKLTVDKSRWQQGNVFSCSVMHEALHNHYTQKSLSLSPG
light: DIQMTQSPSSLSASVGDRVTITCLASEDISNDLAWYQQKPGKAPKLLIYFVDRLLDGVPSRFSGSGSGTDFTLTISSLQPEDFATYYCQQSYKYPPTFGQGTKLEIKRTVAAPSVFIFPPSDEQLKSGTASVVCLLNNFYPREAKVQWKVDNALQSGNSQESVTEQDSKDSTYSLSSTLTLSKADYEKHKVYACEVTHQGLSSPVTKSFNRGEC
notes: LYV378_VH-1/IgG1mut, LYV378_VL-1/kappa; also called TM3783; Ly3783
Turning to B5, the binding result is “binds”.

B6: TM553 (antibody, human IgG2, kappa)
heavy: QVQLVESGGGLVQPGGSLKLSCATSGFNFNDSFMNWVRQASGKGLEWVGQIRNKNYNYATYYTESLEGRVTISRDDSKNTAYLQMNSLKTEDTAVYYCTSYYYDGFADYFDYWGQGTTVTVSSASTKGPSVFPLAPCSRSTSESTAALGCLVKDYFPEPVTVSWNSGALTSGVHTFPAVLQSSGLYSLSSVVTVPSSNFGTQTYTCNVDHKPSNTKVDKTVERKCCVECPPCPAPPVAGPSVFLFPPKPKDTLMISRTPEVTCVVVDVSHEDPEVQFNWYVDGVEVHNAKTKPREEQFNSTFRVVSVLTVVHQDWLNGKEYKCKVSNKGLPAPIEKTISKTKGQPREPQVYTLPPSREEMTKNQVSLTCLVKGFYPSDIAVEWESNGQPENNYKTTPPMLDSDGSFFLYSKLTVDKSRWQQGNVFSCSVMHEALHNHYTQKSLSLSPG
light: DIQMTQSPSSLSASVGDRVTITCKASQNIYIYLNWYQQKPGKAPKLLIYNTNNLQTGVPSRFSGSGSGTDFTLTISSLQPEDFATYYCLQHSSRRTFGGGTKVEIKRTVAAPSVFIFPPSDEQLKSGTASVVCLLNNFYPREAKVQWKVDNALQSGNSQESVTEQDSKDSTYSLSSTLTLSKADYEKHKVYACEVTHQGLSSPVTKSFNRGEC
notes: VH-2/IgG2, VL-1/kappa
Regarding B6, the binding result is on record as “binds”.

B7: LP3773 (antibody, human IgG1, kappa)
heavy: QVQLVESGGGLVQPGGSLKLSCATSGFNFNDSFMNWVRQASGKGLEWVGQIRNKNYNYATYYTESLEGRVTISRDDSKNTAYLQMNSLKTEDTAVYYCTSYYYDGFADYFDYWGQGTTVTVSSASTKGPSVFPLAPSSKSTSGGTAALGCLVKDYFPEPVTVSWNSGALTSGVHTFPAVLQSSGLYSLSSVVTVPSSSLGTQTYICNVNHKPSNTKVDKKVEPKSCDKTHTCPPCPAPELLGPSVFLFPPKPKDTLMISRTPEVTCVVVDVEHEDPEVKFNWYVDGVEVHNAKTKPREEQYNSTYRVVSVLTVLHQDWLNGKEYKCKVSNKALPAPIEKTISKAKGQPREPQVYTLPPSREEMTKNQVSLTCLVKGFYPSDIAVEWESNGQPENNYKTTPPVLDSDGSFFLYSKLTVDKSRWQQGNVFSCSVMHEALHNHYTQKSLSLSPG
light: DIQMTQSPSSLSASVGDRVTITCKASQNIYIYLNWYQQKPGKAPKLLIYNTNNLQTGVPSRFSGSGSGTDFTLTISSLQPEDFATYYCLQHSSRRTFGGGTKVEIKRTVAAPSVFIFPPSDEQLKSGTASVVCLLNNFYPREAKVQWKVDNALQSGNSQESVTEQDSKDSTYSLSSTLTLSKADYEKHKVYACEVTHQGLSSPVTKSFNRGEC
notes: VH-2/IgG1mut, VL-1/kappa
Turning to B7, the binding result is “binds”.

B8: Ly181 (antibody, human IgG2, kappa)
heavy: QVQLVESGGGLVQPGGSLKLSCATSGFNFNDYFMNWVRQASGKGLEWVGQIRNKNYNYATYYTESLEGRVTISRDDSKNTAYLQMNSLKTEDTAVYYCTSYYYDGFADYFDYWGQGTTVTVSSASTKGPSVFPLAPCSRSTSESTAALGCLVKDYFPEPVTVSWNSGALTSGVHTFPAVLQSSGLYSLSSVVTVPSSNFGTQTYTCNVDHKPSNTKVDKTVERKCCVECPPCPAPPVAGPSVFLFPPKPKDTLMISRTPEVTCVVVDVSHEDPEVQFNWYVDGVEVHNAKTKPREEQFNSTFRVVSVLTVVHQDWLNGKEYKCKVSNKGLPAPIEKTISKTKGQPREPQVYTLPPSREEMTKNQVSLTCLVKGFYPSDIAVEWESNGQPENNYKTTPPMLDSDGSFFLYSKLTVDKSRWQQGNVFSCSVMHEALHNHYTQKSLSLSPG
light: DIQMTQSPSSLSASVGDRVTITCKASQNIYIYLNWYQQKPGKAPKLLIYNTNNLQTGVPSRFSGSGSGTDFTLTISSLQPEDFATYYCLQHSSRRTFGGGTKVEIKRTVAAPSVFIFPPSDEQLKSGTASVVCLLNNFYPREAKVQWKVDNALQSGNSQESVTEQDSKDSTYSLSSTLTLSKADYEKHKVYACEVTHQGLSSPVTKSFNRGEC
notes: VH-2Y/IgG2, VL-1/kappa
As for B8, the binding result was “binds”.

B9: TM738 (antibody, human IgG1, kappa, V domains shown)
VH: QVQLVESGGGLVQPGGSLKLSCATSGFNFQDSFMNWVRQASGKGLEWVGQIRNKNYNYATYYTESLEGRVTISRDDSKNTAYLQMNSLKTEDTAVYYCTSYYYDGFADYFDYWGQGTTVTVSS
VL: DIQMTQSPSSLSASVGDRVTITCKASQNIYIYLNWYQQKPGKAPKLLIYNTNNLQTGVPSRFSGSGSGTDFTLTISSLQPEDFATYYCLQHSSRRTFGGGTKVEIKR
notes: VH-2Q/IgG1mut, VL-1/kappa
Take B9: the binding result was “binds”.

B10: TM740 (antibody, human IgG1, kappa)
heavy: QVQLVESGGGLVQPGGSLKLSCATSGFNFNDYFMNWVRQASGKGLEWVGQIRNKNYNYATYYTESLEGRVTISRDDSKNTAYLQMNSLKTEDTAVYYCTSYYYDGFADYFDYWGQGTTVTVSSASTKGPSVFPLAPSSKSTSGGTAALGCLVKDYFPEPVTVSWNSGALTSGVHTFPAVLQSSGLYSLSSVVTVPSSSLGTQTYICNVNHKPSNTKVDKKVEPKSCDKTHTCPPCPAPELLGPSVFLFPPKPKDTLMISRTPEVTCVVVDVEHEDPEVKFNWYVDGVEVHNAKTKPREEQYNSTYRVVSVLTVLHQDWLNGKEYKCKVSNKALPAPIEKTISKAKGQPREPQVYTLPPSREEMTKNQVSLTCLVKGFYPSDIAVEWESNGQPENNYKTTPPVLDSDGSFFLYSKLTVDKSRWQQGNVFSCSVMHEALHNHYTQKSLSLSPG
light: DIQMTQSPSSLSASVGDRVTITCKASQNIYIYLNWYQQKPGKAPKLLIYNTNNLQTGVPSRFSGSGSGTDFTLTISSLQPEDFATYYCLQHSSRRTFGGGTKVEIKRTVAAPSVFIFPPSDEQLKSGTASVVCLLNNFYPREAKVQWKVDNALQSGNSQESVTEQDSKDSTYSLSSTLTLSKADYEKHKVYACEVTHQGLSSPVTKSFNRGEC
notes: VH-2Y/IgG1mut, VL-1/kappa
In the case of B10, the binding result was “binds”.

B11: TM739 (antibody, human IgG1, kappa, V domains shown)
VH: QVQLVESGGGLVQPGGSLKLSCATSGFNFNDAFMNWVRQASGKGLEWVGQIRNKNYNYATYYTESLEGRVTISRDDSKNTAYLQMNSLKTEDTAVYYCTSYYYDGFADYFDYWGQGTTVTVSS
VL: DIQMTQSPSSLSASVGDRVTITCKASQNIYIYLNWYQQKPGKAPKLLIYNTNNLQTGVPSRFSGSGSGTDFTLTISSLQPEDFATYYCLQHSSRRTFGGGTKVEIKR
notes: VH-2A/IgG1mut, VL-1/kappa
Regarding B11, the binding result is recorded as “binds”.

B12: TM550 (antibody, human IgG2, kappa, V domains shown)
VH: EVQLVESGGGLVQPGGSLKLSCAASGFNFNDSFMNWVRQASGKGLEWVGQIRNKNYNYATYYTESLEGRFTISRDDSKNTAYLQMNSLKTEDTAVYYCTRYYYDGFADYFDYWGQGTTVTVSS
VL: DIQMTQSPSSLSASVGDRVTITCKASQNIYIYLNWYQQKPGKAPKLLIYNTNNLQTGVPSRFSGSGSGTDFTLTISSLQPEDFATYYCLQHSSRRTFGGGTKVEIKR
notes: CDR grafted humanized LYV377
Take B12: the binding result is reported as “binds”.

The values above are taken from patent US20220372155A1 (LYVGEN BIOPHARMA, published 2022).
